In the assay the target is T1, ヒト組織因子(TF)(ヒト膀胱癌細胞J82上に発現) (human, UniProt P13726 33-295).
T1 construct: whole, on cells; Target of the cell ELISA; also called ヒトTF; 抗原
Description: cell ELISA on fixed J82 cells.

B1: H鎖ヒト型化バージョンa/L鎖キメラ抗体 (antibody, V domains shown)
VH: QVQLLESGAVLARPGTSVKISCKASGFNIKDYYMHWVKQRPGQGLEWIGGNDPANGHSMYDPKFQGRAKLTAATSASIAYLEFSSLTNEDSAVYYCARDSGYAMDYWGQGTLVTVSS
VL: DIKMTQSPSSMYASLGERVTITCKASQDIKSFLSWYQQKPWKSPKTLIYYATSLADGVPSRFSGSGSGQDYSLTINNLESDDTATYYCLQHGESPYTFGGGTKLEIK
notes: Human IgG4 kappa (vector N5KG4P); also called a-ch
For B1, the binding result was “binds”.

B2: H鎖ヒト型化バージョンa/L鎖ヒト型化バージョンa抗体 (antibody, V domains shown)
VH: QVQLLESGAVLARPGTSVKISCKASGFNIKDYYMHWVKQRPGQGLEWIGGNDPANGHSMYDPKFQGRAKLTAATSASIAYLEFSSLTNEDSAVYYCARDSGYAMDYWGQGTLVTVSS
VL: DIQMTQSPSSLSASVGDRVTITCKASQDIKSFLSWYQQKPGKAPKLLIYYATSLADGVPSRFSGSGSGTDFTLTISSLQPEDFATYYCLQHGESPYTFGGGTKVEIK
notes: Human IgG4 kappa (vector N5KG4P); also called a-a
As to B2, the binding result is on record as “binds”.

B3: H鎖ヒト型化バージョンb/L鎖キメラ抗体 (antibody, V domains shown)
VH: QVQLLESGAVLARPGTSVKISCKASGFNIKDYYMHWVKQRPGQGLEWIGGNDPANGHSMYDPKFQGRVTITADTSTNTAYMELSSLRSEDTAIYYCARDSGYAMDYWGQGTLVTVSS
VL: DIKMTQSPSSMYASLGERVTITCKASQDIKSFLSWYQQKPWKSPKTLIYYATSLADGVPSRFSGSGSGQDYSLTINNLESDDTATYYCLQHGESPYTFGGGTKLEIK
notes: Human IgG4 kappa (vector N5KG4P); also called b-ch
B3: the binding result is “binds”.

B4: H鎖ヒト型化バージョンd/L鎖キメラ抗体 (antibody, V domains shown)
VH: QVQLLESGAVLARPGTSVKISCKASGFNIKDYYMHWVKQRPGQGLEWIGGNDPANGHSMYDPKFQGRVTITADESTSTAYMELSSLRSEDSAVYFCARDSGYAMDYWGQGTLVTVSS
VL: DIKMTQSPSSMYASLGERVTITCKASQDIKSFLSWYQQKPWKSPKTLIYYATSLADGVPSRFSGSGSGQDYSLTINNLESDDTATYYCLQHGESPYTFGGGTKLEIK
notes: Human IgG4 kappa (vector N5KG4P); also called d-ch
On to B4, for which the binding result is recorded as “binds”.

B5: H鎖ヒト型化バージョンj/L鎖キメラ抗体 (antibody, V domains shown)
VH: QVQLLESGAVLARPGTSVKISCKASGFNIKDYYMHWVKQRPGQGLEWIGGNDPANGHSMYDPKFQGRVTFTADTSANTAYMELRSLRSADTAVYYCARDSGYAMDYWGQGTLVTVSS
VL: DIKMTQSPSSMYASLGERVTITCKASQDIKSFLSWYQQKPWKSPKTLIYYATSLADGVPSRFSGSGSGQDYSLTINNLESDDTATYYCLQHGESPYTFGGGTKLEIK
notes: Human IgG4 kappa (vector N5KG4P); also called j-ch
Regarding B5, the binding result is listed as “binds”.

B6: H鎖ヒト型化バージョンe/L鎖キメラ抗体 (antibody, V domains shown)
VH: QVQLLESGAVLARPGTSVKISCKASGFNIKDYYMHWVKQRPGQGLEWIGGNDPANGHSMYDPKFQGRVSITADESTKIAYMELNSLRSEDTAVYFCARDSGYAMDYWGQGTLVTVSS
VL: DIKMTQSPSSMYASLGERVTITCKASQDIKSFLSWYQQKPWKSPKTLIYYATSLADGVPSRFSGSGSGQDYSLTINNLESDDTATYYCLQHGESPYTFGGGTKLEIK
notes: Human IgG4 kappa (vector N5KG4P); also called e-ch
As for B6, the binding result is “binds”.

B7: H鎖ヒト型化バージョンi/L鎖キメラ抗体 (antibody, V domains shown)
VH: QVQLLESGAVLARPGTSVKISCKASGFNIKDYYMHWVKQRPGQGLEWIGGNDPANGHSMYDPKFQGRVTITADTSTSTVFMELSSLRSEDTAVYYCARDSGYAMDYWGQGTLVTVSS
VL: DIKMTQSPSSMYASLGERVTITCKASQDIKSFLSWYQQKPWKSPKTLIYYATSLADGVPSRFSGSGSGQDYSLTINNLESDDTATYYCLQHGESPYTFGGGTKLEIK
notes: Human IgG4 kappa (vector N5KG4P); also called i-ch
Regarding B7, the binding result is “binds”.

B8: H鎖キメラ/L鎖ヒト型化バージョンb抗体 (antibody, V domains shown)
VH: EVQLQQSGTNLVRPGALVKLSCKGSGFNIKDYYMHWVKQRPEQGLEWIGGNDPANGHSMYDPKFQGKASITADTSSNTAYLQLSSLTSEDTAVYFCARDSGYAMDYWGQGTSVTVSS
VL: DIQMTQSPSSLSASVGDRVTITCKASQDIKSFLSWYQQKPGKAPKLLIYYATSLADGVPSRFSGSGSGTDYTLTISSLQPEDFATYYCLQHGESPYTFGGGTKVEIK
notes: Human IgG4 kappa (vector N5KG4P); also called ch-b
For the molecule B8, the binding result is reported as “binds”.

B9: H鎖ヒト型化バージョンb3/L鎖ヒト型化バージョンb抗体 (antibody, V domains shown)
VH: QVQLLESGAVLARPGTSVKISCKASGFNIKDYYMHWVRQAPGQGLEWIGGNDPANGHSMYDPKFQGRVTITADTSTNTAYMELSSLRSEDTAIYYCARDSGYAMDYWGQGTLVTVSS
VL: DIQMTQSPSSLSASVGDRVTITCKASQDIKSFLSWYQQKPGKAPKLLIYYATSLADGVPSRFSGSGSGTDYTLTISSLQPEDFATYYCLQHGESPYTFGGGTKVEIK
notes: Human IgG4 kappa (vector N5KG4P); also called b3-b
On to B9, for which the binding result is reported as “binds”.

B10: H鎖ヒト型化バージョンd/L鎖ヒト型化バージョンb抗体 (antibody, V domains shown)
VH: QVQLLESGAVLARPGTSVKISCKASGFNIKDYYMHWVKQRPGQGLEWIGGNDPANGHSMYDPKFQGRVTITADESTSTAYMELSSLRSEDSAVYFCARDSGYAMDYWGQGTLVTVSS
VL: DIQMTQSPSSLSASVGDRVTITCKASQDIKSFLSWYQQKPGKAPKLLIYYATSLADGVPSRFSGSGSGTDYTLTISSLQPEDFATYYCLQHGESPYTFGGGTKVEIK
notes: Human IgG4 kappa (vector N5KG4P); also called d-b
On to B10, for which the binding result is on record as “binds”.

B11: H鎖キメラ/L鎖ヒト型化バージョンa抗体 (antibody, V domains shown)
VH: EVQLQQSGTNLVRPGALVKLSCKGSGFNIKDYYMHWVKQRPEQGLEWIGGNDPANGHSMYDPKFQGKASITADTSSNTAYLQLSSLTSEDTAVYFCARDSGYAMDYWGQGTSVTVSS
VL: DIQMTQSPSSLSASVGDRVTITCKASQDIKSFLSWYQQKPGKAPKLLIYYATSLADGVPSRFSGSGSGTDFTLTISSLQPEDFATYYCLQHGESPYTFGGGTKVEIK
notes: Human IgG4 kappa (vector N5KG4P); also called ch-a
For the molecule B11, the binding result was “binds”.

B12: H鎖キメラ/L鎖ヒト型化バージョンc抗体 (antibody, V domains shown)
VH: EVQLQQSGTNLVRPGALVKLSCKGSGFNIKDYYMHWVKQRPEQGLEWIGGNDPANGHSMYDPKFQGKASITADTSSNTAYLQLSSLTSEDTAVYFCARDSGYAMDYWGQGTSVTVSS
VL: DIQMTQSPSSLSASVGDRVTITCKASQDIKSFLSWYQQKPGKAPKLLIYYATSLADGVPSRFSGSGSGTDYTLTISSLQPEDIATYYCLQHGESPYTFGGGTKVEIK
notes: Human IgG4 kappa (vector N5KG4P); also called ch-c
On to B12, for which the binding result is listed as “binds”.

B13: H鎖ヒト型化バージョンg/L鎖ヒト型化バージョンb抗体 (antibody, V domains shown)
VH: QVQLLESGAVLARPGTSVKISCKASGFNIKDYYMHWVKQRPGQGLEWIGGNDPANGHSMYDPKFQGKATLTADESSSTAYMQLSSLRSEDSAVYSCARDSGYAMDYWGQGTLVTVSS
VL: DIQMTQSPSSLSASVGDRVTITCKASQDIKSFLSWYQQKPGKAPKLLIYYATSLADGVPSRFSGSGSGTDYTLTISSLQPEDFATYYCLQHGESPYTFGGGTKVEIK
notes: Human IgG4 kappa (vector N5KG4P); also called g-b
Consider B13, for which the binding result is “binds”.

B14: H鎖ヒト型化バージョンb/L鎖ヒト型化バージョンa抗体 (antibody, V domains shown)
VH: QVQLLESGAVLARPGTSVKISCKASGFNIKDYYMHWVKQRPGQGLEWIGGNDPANGHSMYDPKFQGRVTITADTSTNTAYMELSSLRSEDTAIYYCARDSGYAMDYWGQGTLVTVSS
VL: DIQMTQSPSSLSASVGDRVTITCKASQDIKSFLSWYQQKPGKAPKLLIYYATSLADGVPSRFSGSGSGTDFTLTISSLQPEDFATYYCLQHGESPYTFGGGTKVEIK
notes: Human IgG4 kappa (vector N5KG4P); also called b-a
As for B14, the binding result is “binds”.

B15: H鎖キメラ/L鎖ヒト型化バージョンb1抗体 (antibody, V domains shown)
VH: EVQLQQSGTNLVRPGALVKLSCKGSGFNIKDYYMHWVKQRPEQGLEWIGGNDPANGHSMYDPKFQGKASITADTSSNTAYLQLSSLTSEDTAVYFCARDSGYAMDYWGQGTSVTVSS
VL: DIQMTQSPSSLSASVGDRVTITCKASQDIKSFLSWFQQKPGKSPKTLIYYATSLADGVPSRFSGSGSGTDYTLTISSLQPEDFATYYCLQHGESPYTFGGGTKVEIK
notes: Human IgG4 kappa (vector N5KG4P); also called ch-b1
For the molecule B15, the binding result is “binds”.

B16: H鎖キメラ/L鎖ヒト型化バージョンb2抗体 (antibody, V domains shown)
VH: EVQLQQSGTNLVRPGALVKLSCKGSGFNIKDYYMHWVKQRPEQGLEWIGGNDPANGHSMYDPKFQGKASITADTSSNTAYLQLSSLTSEDTAVYFCARDSGYAMDYWGQGTSVTVSS
VL: DIQMTQSPSSLSASVGDRVTITCKASQDIKSFLSWYQQKPEKAPKSLIYYATSLADGVPSRFSGSGSGTDYTLTISSLQPEDFATYYCLQHGESPYTFGGGTKVEIK
notes: Human IgG4 kappa (vector N5KG4P); also called ch-b2
For the molecule B16, the binding result is recorded as “binds”.

B17: H鎖ヒト型化バージョンb/L鎖ヒト型化バージョンb2抗体 (antibody, V domains shown)
VH: QVQLLESGAVLARPGTSVKISCKASGFNIKDYYMHWVKQRPGQGLEWIGGNDPANGHSMYDPKFQGRVTITADTSTNTAYMELSSLRSEDTAIYYCARDSGYAMDYWGQGTLVTVSS
VL: DIQMTQSPSSLSASVGDRVTITCKASQDIKSFLSWYQQKPEKAPKSLIYYATSLADGVPSRFSGSGSGTDYTLTISSLQPEDFATYYCLQHGESPYTFGGGTKVEIK
notes: Human IgG4 kappa (vector N5KG4P); also called b-b2
In the case of B17, the binding result is recorded as “binds”.

B18: H鎖ヒト型化バージョンd3/L鎖ヒト型化バージョンb抗体 (antibody, V domains shown)
VH: QVQLLESGAVLARPGTSVKISCKASGFNIKDYYMHWVRQAPGQGLEWIGGNDPANGHSMYDPKFQGRVTITADESTSTAYMELSSLRSEDSAVYFCARDSGYAMDYWGQGTLVTVSS
VL: DIQMTQSPSSLSASVGDRVTITCKASQDIKSFLSWYQQKPGKAPKLLIYYATSLADGVPSRFSGSGSGTDYTLTISSLQPEDFATYYCLQHGESPYTFGGGTKVEIK
notes: Human IgG4 kappa (vector N5KG4P); also called d3-b
As to B18, the binding result is reported as “binds”.

B19: H鎖ヒト型化バージョンi/L鎖ヒト型化バージョンb1抗体 (antibody, V domains shown)
VH: QVQLLESGAVLARPGTSVKISCKASGFNIKDYYMHWVKQRPGQGLEWIGGNDPANGHSMYDPKFQGRVTITADTSTSTVFMELSSLRSEDTAVYYCARDSGYAMDYWGQGTLVTVSS
VL: DIQMTQSPSSLSASVGDRVTITCKASQDIKSFLSWFQQKPGKSPKTLIYYATSLADGVPSRFSGSGSGTDYTLTISSLQPEDFATYYCLQHGESPYTFGGGTKVEIK
notes: Human IgG4 kappa (vector N5KG4P); also called i-b1
For the molecule B19, the binding result is given as “binds”.

B20: H鎖ヒト型化バージョンj/L鎖ヒト型化バージョンb抗体 (antibody, V domains shown)
VH: QVQLLESGAVLARPGTSVKISCKASGFNIKDYYMHWVKQRPGQGLEWIGGNDPANGHSMYDPKFQGRVTFTADTSANTAYMELRSLRSADTAVYYCARDSGYAMDYWGQGTLVTVSS
VL: DIQMTQSPSSLSASVGDRVTITCKASQDIKSFLSWYQQKPGKAPKLLIYYATSLADGVPSRFSGSGSGTDYTLTISSLQPEDFATYYCLQHGESPYTFGGGTKVEIK
notes: Human IgG4 kappa (vector N5KG4P); also called j-b
B20: the binding result was “binds”.

B21: H鎖ヒト型化バージョンb/L鎖ヒト型化バージョンc抗体 (antibody, V domains shown)
VH: QVQLLESGAVLARPGTSVKISCKASGFNIKDYYMHWVKQRPGQGLEWIGGNDPANGHSMYDPKFQGRVTITADTSTNTAYMELSSLRSEDTAIYYCARDSGYAMDYWGQGTLVTVSS
VL: DIQMTQSPSSLSASVGDRVTITCKASQDIKSFLSWYQQKPGKAPKLLIYYATSLADGVPSRFSGSGSGTDYTLTISSLQPEDIATYYCLQHGESPYTFGGGTKVEIK
notes: the construction of its expression plasmid is not described; also called b-c
On to B21, for which the binding result is reported as “binds”.

These data come from patent publication JP2005330292A (dated 2005).
